# Laboratory results from article PMC3426546.
# Biological target: ECTV-IL18BP expressed and secreted from mammalian cells, biotinylated (ectromelia virus)
# Assay: SPR
substance,measurement,value
IL18 D110A (ligand),Kd,200 pM
same,koff,3e-05 s⁻¹
same,kon,260000 M⁻¹ s⁻¹
